Assay [1] concerns the target FLAG-ADAR1p110-T/S-to-A (phosphorylation inhibitory mutant) (human). As to the kind of experiment: pull-down.
Assay [2] has as its target FLAG-ADAR1p110-T/S-to-D (phosphomimetic mutant) (human). As to the kind of experiment: pull-down.

“Xpo5-RanGTP complex (His-Xpo5 with His-RanQ69L and GTP, preassembled with VARdm RNA) (from UniProt Q9HAV4 1-1204; P62826 1-216)”: the binding efficiency (judged from unbound His-Xpo5 in flow-through) was below 10% in assay [1] and 70% in assay [2]. The substance further returned a fold amount bound against ADAR1p110-T/S-to-A in assay [2] of 10 to 20 fold.
